The record followed here is article PMC3102714, “OsSpo11-4, a Rice Homologue of the Archaeal TopVIA Protein, Mediates Double-Strand DNA Cleavage and Interacts with OsTopVIB” (PLoS ONE, 2011).

In this experiment the target is T1, GST-OsTopVIB fusion protein (Oryza sativa L. ssp. japonica, UniProt Q6H442 1-696).
T1 construct: OsTopVIB, Oryza sativa L. ssp. japonica; ORF amplified with primers P17 and P18, cloned BamHI/BglII into pESP-2; fusion about 103 kD; also called OsTopVIB-GST fusion; GST-TopVIB
T1 sequence (looked up): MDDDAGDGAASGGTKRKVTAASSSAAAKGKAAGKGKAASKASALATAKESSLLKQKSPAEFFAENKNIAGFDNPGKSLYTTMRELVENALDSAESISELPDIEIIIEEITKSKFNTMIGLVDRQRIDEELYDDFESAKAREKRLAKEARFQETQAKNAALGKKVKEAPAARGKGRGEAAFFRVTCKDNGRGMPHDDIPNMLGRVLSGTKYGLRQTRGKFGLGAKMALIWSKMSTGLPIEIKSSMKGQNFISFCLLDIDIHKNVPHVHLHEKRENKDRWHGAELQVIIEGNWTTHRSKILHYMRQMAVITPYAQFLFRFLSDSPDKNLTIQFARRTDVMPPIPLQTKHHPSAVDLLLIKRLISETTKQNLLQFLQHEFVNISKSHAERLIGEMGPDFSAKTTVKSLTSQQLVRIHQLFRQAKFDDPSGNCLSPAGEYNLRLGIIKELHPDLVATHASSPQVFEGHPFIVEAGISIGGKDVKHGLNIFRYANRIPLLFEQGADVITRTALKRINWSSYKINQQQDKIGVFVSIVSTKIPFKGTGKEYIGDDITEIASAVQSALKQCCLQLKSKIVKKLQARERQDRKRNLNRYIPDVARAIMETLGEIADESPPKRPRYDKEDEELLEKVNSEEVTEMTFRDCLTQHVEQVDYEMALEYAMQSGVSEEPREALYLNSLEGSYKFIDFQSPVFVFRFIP
The experiment is described as follows: pull-down; GST-OsTopVIB preabsorbed to Glutathione Sepharose resin; purified pET-OsSpo11-4 precleared with GST resin; 0.5% NP-40 lysis buffer (20 mM Tris-HCl pH 8.0, 200 mM NaCl, 1 mM EDTA), 4°C, 6 h; western blot with antibody against pET-OsSpo11-4. Conditions: both partners purified.

B1: pET-OsSpo11-4 fusion protein (natural protein, Oryza sativa L. ssp. japonica, UniProt Q2QM00 1-487, looked up)
chain: MDDSTDDDSYHPRKHYAYDRQVSSSRWRTSREYIRGPGPETHTTESAQDGQDPPAGVYSYGYFSGSGNDPQVQGHFVPEIQKYNPYVIFKGEQLPVPIWELPEEKVQDFHDRYFIAKDKSRVEARKTLNRLLEGNINTIERGHGYKFNIPKYTDNMEFNEEVKVSLAKAGKTISRSFCNANQREVASRTGYTIDLIERTLGAGLNISKRTVLYTNKDLFGDQSKSDQAINDICALTNIRRGSLGIIAAEKGIVVGNIFLELTNGKSISCSIGVQIPHRLDQIKDVCVEIGSRNIEYILVVEKHTMLNYLLEMDYHTNNNCIILTGCGMPTLQTRDFLRFLKQRTGLPVFGLCDPDPEGISILATYARGSCNSAYDNFNISVPSICWVGLSSSDMIKLNLSETNYSRLSREDKTMLKNLWQDDLSDVWKRRIEEMISFDKKASFEAIHSLGFDYFATNLLPDMINKVREGYVQVQEKKEPQDTEASED
notes: OsSpo11-4, Oryza sativa L. ssp. japonica, predicted protein of 487 amino acids; full-length ORF amplified with primers P5 and P6, cloned into EcoRI/XhoI of pET-32a(+); fusion about 72 kD; Forward primer P5 lacks the ATG GAT that primer P15 has, so the insert may lack the first two codons; also called pET-Spo11-4
In the case of B1, the binding result is given as “binds”.
